Groups on a side chain read outwards from the residue. No end group written: not given here. NSMP = not defined here
T1: BSA-conjugated Aβ heptapeptide FFAEDVC (C-terminal Cys coupled to NSMP-activated BSA)
T1 construct: also called Peptide 19-24
T1 peptide: FFAEDVC

T2: BSA-conjugated Aβ heptapeptide VFFAEDC (C-terminal Cys coupled to NSMP-activated BSA)
T2 construct: also called Peptide 18-23
T2 peptide: VFFAEDC

T3: BSA-conjugated Aβ heptapeptide LVFFAEC (reading uncertain; also: BSA conjugate)
T3 construct: also called Peptide 17-22
T3 peptide: LVFFAEC([NSMP-BSA])

T4: BSA-conjugated Aβ heptapeptide AEFRHDC (C-terminal Cys coupled to NSMP-activated BSA)
T4 construct: also called Peptide 2-7
T4 peptide: AEFRHDC


Experiments:
[1] = target: T1, BSA-conjugated Aβ heptapeptide FFAEDVC; test: ELISA
Protocol: (§1) 50 μl of NSMP activated BSA (6.7 mg/ml) was diluted with 50 μl of PBS, 0.1% sodium azide and 10 μl of peptide solution (1 mM in DMSO) was added. As negative control activated BSA was mock-treated without peptide addition. After 4 hrs at room temperature the reaction was stopped by addition of 10 μl of 10 mM Cystein. An aliquot of the conjugate reaction mixture was diluted 1:100 with 0.1M sodium bicarbonate buffer and immediately filled into the wells (100 μl) of ELISA plates (Nunc Immuno-Plate). After standing 16 hrs at 4° C. 100 μl blocking buffer (as above) was added to each well and incubated for another 30 minutes. The plates were washed with 2×300 μl/well TBST (as above) and filled with 100 μl antibody at 10 μg/ml or 2 μg/ml in blocking buffer. The plates were kept 16 hours at 4° C. and washed with 2×300 μl TBST. 100 μl/well HRP-conjugated anti-human Ig H+L (Pierce, dilution 1:1000 with blocking buffer) was added and incubated for 1 hour at ambient temperature. The plates were washed with 3×300 μl/well TBST. Colour development was started by addition of 100 μl tetra-methyl benzidine/hydrogen peroxide reagent.

[2] = target: T2, BSA-conjugated Aβ heptapeptide VFFAEDC; test: ELISA
Protocol: as §1

[3] = target: T3, BSA-conjugated Aβ heptapeptide LVFFAEC; test: ELISA
Protocol: as §1

[4] = target: T4, BSA-conjugated Aβ heptapeptide AEFRHDC; test: ELISA
Protocol: as §1

human Aβ (1-40) peptide = target: T5, human Aβ (1-40) peptide (human); test: SPR, immobilized fibers;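 note: biacore SPR using in vitro grown Aβ1-40 or Aβ1-42 fibrils immobilized on the chip with Fab analytes, KD from koff/kon fits or equilibrium isotherms based on total Fab concentration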
T5 construct: also called Aβ1-40 fibers

Aβ (1-42) peptide = target: T6, Aβ (1-42) peptide (human); test: SPR, immobilized fibers;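 note: biacore SPR using in vitro grown Aβ1-40 or Aβ1-42 fibrils immobilized on the chip with Fab analytes, KD from koff/kon fits or equilibrium isotherms based on total Fab concentration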
T6 construct: also called Aβ1-42 fibers; Aβ4
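Throughout, for OD ratio 18-23/BSA: ELISA of antibody at 10 or 2 µg/ml binding plate-coated BSA–peptide conjugates, detected with HRP anti-human Ig and TMB colour, mock-treated BSA without peptide as negative control.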
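Throughout, for OD ratio 19-24/BSA: ELISA of antibody at 10 or 2 µg/ml binding plate-coated BSA–peptide conjugates, detected with HRP anti-human Ig and TMB colour, mock-treated BSA without peptide as negative control.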
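Throughout, for Peptide-ratio 18-23/2-7: ELISA of antibody at 10 or 2 µg/ml binding plate-coated BSA–peptide conjugates, detected with HRP anti-human Ig and TMB colour, mock-treated BSA without peptide as negative control.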
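Throughout, for Peptide-ratio 19-24/2-7: ELISA of antibody at 10 or 2 µg/ml binding plate-coated BSA–peptide conjugates, detected with HRP anti-human Ig and TMB colour, mock-treated BSA without peptide as negative control.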

Binder | OD ratio 19-24/BSA [1] | Peptide-ratio 19-24/2-7 [1] | OD ratio 18-23/BSA [2] | Peptide-ratio 18-23/2-7 [2] | OD ratio 17-22/BSA [3] | Peptide-ratio 17-22/2-7 [3] | OD ratio 2-7/BSA [4] | Kd (human Aβ (1-40) peptide) | Kd (Aβ (1-42) peptide)
MS-Roche #7.9.H3 Fab (Fab, V domains shown, assembled) VH: QVQLVESGGGLVQPGGSLRLSCAASGFTFSSYAMSWVRQAPGKGLEWVSAINYQGNRKYYADSVKGRFTISRDNSKNTLYLQMNSLRAEDTAVYYCARGKGNTHKPYGYVRYFDVWGQGTLVTVSS VL: DIVLTQSPATLSLSPGERATLSCRASQSVSSSYLAWYQQKPGQAPRLLIYGASSRATGVPARFSGSGSGTDFTLTISSLEPEDFATYYCLQIYNMPITFGQGTKVEIKR | 9 | 0.27 | 20 | 0.57 | 11 | 0.31 | 35 | 4.2 nM | 2.8 nM
MS-Roche #7.11.H2 Fab (Fab, V domains shown) VH: QVQLVESGGGLVQPGGSLRLSCAASGFTFSSYAMSWVRQAPGKGLEWVSAINANGYKKYYADSVKGRFTISRDNSKNTLYLQMNSLRAEDTAVYYCARGKGNTHKPYGYVRYFDVWGQGTLVTVSS VL: DIVLTQSPATLSLSPGERATLSCRASQSVSSSYLAWYQQKPGQAPRLLIYGASSRATGVPARFSGSGSGTDFTLTISSLEPEDFATYYCQQVYSPPHTFGQGTKVEIKR | 14 | 0.41 | 12 | 0.36 | 10 | 0.29 | 34 | 0.3 nM | 0.3 nM
MS-Roche #7.11.H1 Fab (Fab, V domains shown) VH: QVQLVESGGGLVQPGGSLRLSCAASGFTFSSYAMSWVRQAPGKGLEWVSGINAAGFRTYYADSVKGRFTISRDNSKNTLYLQMNSLRAEDTAVYYCARGKGNTHKPYGYVRYFDVWGQGTLVTVSS VL: DIVLTQSPATLSLSPGERATLSCRASQSVSSSYLAWYQQKPGQAPRLLIYGASSRATGVPARFSGSGSGTDFTLTISSLEPEDFATYYCQQVYSPPHTFGQGTKVEIKR | 8 | 0.25 | 9 | 0.29 | 8 | 0.25 | 31 | 12.7 nM | 6.7 nM
MS-Roche #7.11 Fab (Fab, V domains shown) VH: not shown VL: DIVLTQSPATLSLSPGERATLSCRASQSVSSSYLAWYQQKPGQAPRLLIYGASSRATGVPARFSGSGSGTDFTLTISSLEPEDFATYYCQQVYSPPHTFGQGTKVEIKR | 9 | 0.24 | 15 | 0.41 | 11 | 0.3 | 37 | 22 nM | 74 nM
MS-Roche #7.9.H4 Fab (Fab, V domains shown, assembled) VH: QVQLVESGGGLVQPGGSLRLSCAASGFTFSSYAMSWVRQAPGKGLEWVSAINAVGMKKFYADSVKGRFTISRDNSKNTLYLQMNSLRAEDTAVYYCARGKGNTHKPYGYVRYFDVWGQGTLVTVSS VL: DIVLTQSPATLSLSPGERATLSCRASQSVSSSYLAWYQQKPGQAPRLLIYGASSRATGVPARFSGSGSGTDFTLTISSLEPEDFATYYCLQIYNMPITFGQGTKVEIKR | 7 | 0.22 | 15 | 0.49 | 10 | 0.32 | 30 | 4.8 nM | 4.2 nM
MS-Roche #3.2.H2 Fab (Fab, V domains shown) VH: QVQLVESGGGLVQPGGSLRLSCAASGFTFSSYAMSWVRQAPGKGLEWVSAISQRGQFTYYADSVKGRFTISRDNSKNTLYLQMNSLRAEDTAVYYCARLTHYARYYRYFDVWGQGTLVTVSS VL: not shown | 20 | 0.77 | 23 | 0.88 | 12 | 0.46 | 26 | 5.2 nM | 1.1 nM
MS-Roche #3.3.H3 Fab (Fab, V domains shown) VH: QVQLVESGGGLVQPGGSLRLSCAASGFTFSSYAMSWVRQAPGKGLEWVSAISQNGFHIYYADSVKGRFTISRDNSKNTLYLQMNSLRAEDTAVYYCARLTHYARYYRYFDVWGQGTLVTVSS VL: not shown | 2 | 0.06 | 5 | 0.16 | 2 | 0.06 | 31 | 1.4 nM | 3.3 nM
MS-Roche #3.4.H3 Fab (Fab, V domains shown) VH: QVQLVESGGGLVQPGGSLRLSCAASGFTFSSYAMSWVRQAPGKGLEWVSVISQTGRKIYYADSVKGRFTISRDNSKNTLYLQMNSLRAEDTAVYYCARLTHYARYYRYFDVWGQGTLVTVSS VL: not shown | 11 | 0.5 | 17 | 0.77 | 9 | 0.41 | 22 | 6.7 nM | 8.4 nM
MS-Roche #3.4.H1 Fab (Fab, V domains shown) VH: QVQLVESGGGLVQPGGSLRLSCAASGFTFSSYAMSWVRQAPGKGLEWVSAISETSIRKYYADSVKGRFTISRDNSKNTLYLQMNSLRAEDTAVYYCARLTHYARYYRYFDVWGQGTLVTVSS VL: not shown | 2 | 0.07 | 8 | 0.3 | 2 | 0.07 | 27 | 13.5 nM | 14 nM
MS-Roche #3.3.H1 Fab (Fab, V domains shown) VH: QVQLVESGGGLVQPGGSLRLSCAASGFTFSSYAMSWVRQAPGKGLEWVSVISEKSRFIYYADSVKGRFTISRDNSKNTLYLQMNSLRAEDTAVYYCARLTHYARYYRYFDVWGQGTLVTVSS VL: not shown | 8 | 0.35 | 12 | 0.52 | 4 | 0.17 | 23 | 17.1 nM | 19.4 nM
